# Legend:
# [1] = molecular target: T1, human CD22 (hCD22) expressed on the cell surface (human, UniProt P20273 20-847); assay: BHK-CD22 cell ELISA
# T1 construct: whole, on cells; Used as capture agent in the BHK-CD22 cell ELISA and as target in flow cytometry; also called BHK-CD22; hCD22 expressing CHO cells
# [2] = molecular target: hCD22 immobilised on a CM5 sensor chip (BIAcore ligand) (human, UniProt P20273 20-687, limits assumed); assay: BIAcore 3000 SPR; hCD22 amine-coupled to CM5 chip, IgG injected; global 1:1 fit
# Procedure: Binding affinity of HB22.7 and RHOv2ACD/RKA were determined on a BIAcore 3000 instrument (BIAcore, Inc., Uppsala, Sweden). The ligand, hCD22, was prepared at 50 nM in 10 mM NaOAc, pH4 buffer. It was injected onto an EDC/NHS-activated CM5 sensor chip (BIAcore, Inc. Uppsala, Sweden) using a standard immobilization protocol. Following this, any unreacted active ester moieties were quenched using 1M Et-NH2 (ethanolamine; coupling reagents purchased from BIAcore, Inc.). A total of 535 and 689 RUs hCD22 remained bound to two sensor chip surfaces used in these experiments. Separately, a blank surface was prepared on each sensor chip using the identical protocol (minus protein). The blank surfaces were used as a reference cell in the experiments, and served to correct for both non-specific binding and some housekeeping artifacts.
# For the kinetic experiments, HB22.7 and RHOv2ACD/RKA were prepared as two dilution series, starting at 22 nM and 100 nM, then diluted three- and two-fold, respectively, down to final concentrations of 0.03 nM and 0.39 nM in HBS-EP buffer (BIAcore, Inc., consisting of the following: 10 mM HEPES buffer, pH7.4, 150 mM NaCl, 3 mM EDTA, and 0.005% P20). Each concentration of IgG was then injected over both the CD22 and reference cell surfaces, which are connected in series. Between injections, surfaces were regenerated with a 1-minute injection of 3M MgCl2.
# [3] = molecular target: T1, human CD22 (hCD22) expressed on the …; assay: binding to BHK-hCD22 cells
# Procedure: The ability of chHB227 and its humanized variants to bind hCD22 was assessed in a cell based CD22 binding assay utilizing BHK cells expressing cell-surface human CD22 as a capture agent. Untransfected BHK cells not expressing hCD22 served as a control for non-specific binding. The BHK and BHK-CD22 lines were grown in DMEM supplemented with 10% Fetal Clone I and antibiotics. G418/Geneticin (0.75 mg/ml) was also added to the growth medium for BHK-CD22 only. The standard NCI protocol was used for the binding assay.
binder,measurement,setting,value
"antibody of chimeric HB22.7 heavy chain (chH) with HB227RKA light chain variable region (antibody, V domains shown, Human IgG1/kappa, COS-7 supernatant; VL entry may include the DPK018 leader; also called chH+RKA) VH: QVQLKESGPGLVAPSQSLSITCTVSGFSLSDYGVNWVRQIPGKGLEWLGIIWGDGRTDYNSALKSRLNISKDNSKSQVFLKMNSLKADDTARYYCARAPGNRAMEYWGQGTSVTVSS VL: DIVMTQSPSSLSASVGDRVTITCKASQSVTNDVAWYQQKPGKAPKLLIYYASNRYTGVPSRFSGSGSGTDFTLTISSLQPEDFATYYCQQDYRSPWTFGGGTKVEIK",binding result,[1],binds
"humanized anti-hCD22 antibody RHOv2ACD/RKA (antibody, V domains shown, Labelled with Alexa Fluor 488 or 647 in some flow cytometry assays; unlabelled IgG in the BIAcore runs., VH keeps only the D30S back mutation; Labelled with Alexa Fluor 488 or 647 in some flow cytometry assays; also called HB227RHOv2ACD + HB227RKA; RHOvACD/RKA) VH: QVQLEESGGGVVRPGRSLRLSCAASGFTFSDYGVNWIRQAPGKGLEWVTIIWGDGRTDYNSALKSRFTVSRNNSNNTLSLQMNSLTTEDTAVYYCVRAPGNRAMEYWGQGVLVTVSS VL: DIVMTQSPSSLSASVGDRVTITCKASQSVTNDVAWYQQKPGKAPKLLIYYASNRYTGVPSRFSGSGSGTDFTLTISSLQPEDFATYYCQQDYRSPWTFGGGTKVEIK",Kd,[2],22 nM
same,koff,[2],0.00069 s⁻¹
same,kon,[2],32000 M⁻¹ s⁻¹
"humanized antibody HB227RHOv2ABCD + HB227RKA (antibody, V domains shown, VH without back mutations; Human IgG1/kappa, COS-7 supernatant; also called RHOv2ABCD+RKA) VH: QVQLEESGGGVVRPGRSLRLSCAASGFTFDDYGVNWIRQAPGKGLEWVTIIWGDGRTDYNSALKSRFTVSRNNSNNTLSLQMNSLTTEDTAVYYCVRAPGNRAMEYWGQGVLVTVSS VL: DIVMTQSPSSLSASVGDRVTITCKASQSVTNDVAWYQQKPGKAPKLLIYYASNRYTGVPSRFSGSGSGTDFTLTISSLQPEDFATYYCQQDYRSPWTFGGGTKVEIK",binding result,[3],binds
"humanized antibody HB227RHF + HB227RKC (antibody, V domains shown, Human IgG1/kappa, COS-7 supernatant; also called RHF+RKC; humanized (RHF+RKC) antibody) VH: QVQLQESGPALVKPTQTLTLTCTVSGFSLSDYGVNWIRQPPGKALEWLGIIWGDGRTDYNSALKSRLSISKDNSKNQVVLRMTNVDPVDTATYFCARAPGNRAMEYWGQGTVVTVSS VL: DIVMTQSPSSLSASVGDRVTITCKASQSVTNDVAWYQQKPGKAPKLLIYYASNRYTGVPDRFSGSGYGTDFTLTISSLQPEDFATYFCQQDYRSPWTFGGGTKVEIKR",binding result,[1],binds

# Reference: US20070258981A1 (published 2007)
